Reference: the supplement of paper PMC11246515
± gives the standard deviation of the averaged measurements.

Test: total protein half-life in vivo (active degradation + dilution); higher = more stable protein
[1] = E. coli NCM3722 delta-clpP delta-lon delta-hslV, growth: N-lim chemostat, doubling time 6 h
[2] = E. coli NCM3722 delta-clpP, growth: N-lim chemostat, doubling time 6 h
[3] = E. coli NCM3722 delta-hslV, growth: N-lim chemostat, doubling time 6 h
[4] = E. coli NCM3722 delta-lon, growth: N-lim chemostat, doubling time 6 h
[5] = E. coli NCM3722 delta-smpB, growth: N-lim chemostat, doubling time 6 h
[6] = wild type E. coli NCM3722, growth: C-lim chemostat, doubling time 3 h
[7] = wild type E. coli NCM3722, growth: C-lim chemostat, doubling time 6 h
[8] = wild type E. coli NCM3722, growth: C-lim chemostat, doubling time 12 h
[9] = wild type E. coli NCM3722, growth: N-lim chemostat, doubling time 6 h
[10] = wild type E. coli NCM3722, growth: N-lim chemostat, doubling time 12 h
[11] = wild type E. coli NCM3722, growth: P-lim chemostat, doubling time 6 h
[12] = wild type E. coli NCM3722, growth: P-lim chemostat, doubling time 12 h

Row | Sequence | total protein half-life in vivo [1] [h] | total protein half-life in vivo [2] [h] | total protein half-life in vivo [3] [h] | total protein half-life in vivo [4] [h] | total protein half-life in vivo [5] [h] | total protein half-life in vivo [6] [h] | total protein half-life in vivo [7] [h] | total protein half-life in vivo [8] [h] | total protein half-life in vivo [9] [h] | total protein half-life in vivo [10] [h] | total protein half-life in vivo [11] [h] | total protein half-life in vivo [12] [h]
1 | MKTVRESTTLYNFLGSHNPYWRLTESSDVLRFSTTETTEPDRTLQLSAEQAARIREMTVITSSLMMSLTVDESDLSVHLVGRKINKREWAGNASAWHDTPAVARDLSHGLSFAEQVVSEAHSAIVILDSRGNIQRFNRLCEDYTGLKEHDVIGQSVFKLFMSRREAAASRRNNRVFFRSGNAYEVELWIPTCKGQRLFLFRNKFVHSGSGKNEIFLICSGTDITEERRAQERLRILANTDSITGLPNRNAMQDLIDHAINHADNNKVGVVYLDLDNFKKVNDAYGHLFGDQLLRDVSLAILSCLEHDQVLARPGGDEFLVLASNTSQSALEAMASRILTRLRLPFRIGLIEVYTSCSVGIALSPEHGSDSTAIIRHADTAMYTAKEGGRGQFCVFTPEMNQRVFEYLWLDTNLRKALENDQLVIHYQPKITWRGEVRSLEALVRWQSPERGLIPPLDFISYAEESGLIVPLGRWVILDVVRQVAKWRDKGINLRVAVNISARQLADQTIFTALKQVLQELNFEYCPIDVELTESCLIENDELALSVIQQFSQLGAQVHLDDFGTGYSSLSQLARFPIDAIKLDQVFVRDIHKQPVSQSLVRAIVAVAQALNLQVIAEGVESAKEDAFLTKNGINERQGFLFAKPMPAVAFERWYKRYLKRA | 6.59 ± 1.2 | 2.14 | 2.36 ± 0.18 | 3.107 ± 0.019 | 1.94 ± 0.029 | 1.58 ± 0.59 | 4.6 ± 2.3 | 5.35 | 3.27 ± 0.56 | 3.63 | – | –
2 | MKTIEVDDELYSYIASHTKHIGESASDILRRMLKFSAASQPAAPVTKEVRVASPAIVEAKPVKTIKDKVRAMRELLLSDEYAEQKRAVNRFMLLLSTLYSLDAQAFAEATESLHGRTRVYFAADEQTLLKNGNQTKPKHVPGTPYWVITNTNTGRKCSMIEHIMQSMQFPAELIEKVCGTI [P0AFY8] | 6.27 ± 0.64 | 5.709 ± 0.046 | 5.89 ± 0.072 | 5.19 ± 0.16 | 4.27 ± 0.23 | 2.738 ± 0.014 | 4.84 ± 0.89 | 12.7 ± 0.44 | 4.7 ± 0.42 | 8.55 ± 1.1 | 4.71 ± 0.44 | 9.12 ± 0.4
3 | MSDKKKRSMAGLPWIAAMAFFMQALDATILNTALPAIAHSLNRSPLAMQSAIISYTLTVAMLIPVSGWLADRFGTRRIFTLAVSLFTLGSLACALSNSLPQLVVFRVIQGIGGAMMMPVARLALLRAYPRNELLPVLNFVAMPGLVGPILGPVLGGVLVTWATWHWIFLINIPIGIAGLLYARKHMPNFTTARRRFDITGFLLFGLSLVLFSSGIELFGEKIVASWIALTVIVTSIGLLLLYILHARRTPNPLISLDLFKTRTFSIGIVGNIATRLGTGCVPFLMPLMLQVGFGYQAFIAGCMMAPTALGSIIAKSMVTQVLRRLGYRHTLVGITVIIGLMIAQFSLQSPAMAIWMLILPLFILGMAMSTQFTAMNTITLADLTDDNASSGNSVLAVTQQLSISLGVAVSAAVLRVYEGMEGTTTVEQFHYTFITMGIITVASAAMFMLLKTTDGNNLIKRQRKSKPNRVPSESE | 6.64 | – | – | – | – | – | – | – | – | – | 5.92 | –
4 | MKIILLFLAALASFTVHAQPPSQTVEQTVRHIYQNYKSDATAPYFGETGERAITSARIQQALTLNDNLTLPGNIGWLDYDPVCDCQDFGDLVLESVAITQTDADHADAVVRFRIFKDDKEKTTQTLKMVAENGRWVIDDIVSNHGSVLQAVNSENEKTLAALASLQKEQPEAFVAELFEHIADYSWPWTWVVSDSYRQAVNAFYKTTFKTANNPDEDMQIERQFIYDNPICFGEESLFSRVDEIRVLEKTADSARIHVRFTLTNGNNEEQELVLQRREGKWEIADFIRPNSGSLLKQIEAKTAARLKQ | 5.65 | 5.01 ± 0.93 | – | 6.249 ± 0.025 | 5.65 ± 0.12 | 3.56 | > 8 | 11.1 ± 0.5 | 6.33 ± 0.27 | 12.3 ± 1.8 | 6.45 | 11.28 ± 0.1
5 | MKKISLPKIGIRPVIDGRRMGVRESLEEQTMNMAKATAALLTEKLRHACGAAVECVISDTCIAGMAEAAACEEKFSSQNVGLTITVTPCWCYGSETIDMDPTRPKAIWGFNGTERPGAVYLAAALAAHSQKGIPAFSIYGHDVQDADDTSIPADVEEKLLRFARAGLAVASMKGKSYLSLGGVSMGIAGSIVDHNFFESWLGMKVQAVDMTELRRRIDQKIYDEAELEMALAWADKNFRYGEDENNKQYQRNAEQSRAVLRESLLMAMCIRDMMQGNSKLADIGRVEESLGYNAIAAGFQGQRHWTDQYPNGDTAEAILNSSFDWNGVREPFVVATENDSLNGVAMLMGHQLTGTAQVFADVRTYWSPEAIERVTGHKLDGLAEHGIIHLINSGSAALDGSCKQRDSEGNPTMKPHWEISQQEADACLAATEWCPAIHEYFRGGGYSSRFLTEGGVPFTMTRVNIIKGLGPVLQIAEGWSVELPKDVHDILNKRTNSTWPTTWFAPRLTGKGPFTDVYSVMANWGANHGVLTIGHVGADFITLASMLRIPVCMHNVEETKVYRPSAWAAHGMDIEGQDYRACQNYGPLYKR | 4.26 ± 0.39 | 4.38 | – | 3.06 | 3.21 | 3.42 ± 0.12 | 5.12 ± 0.1 | 9.64 ± 0.84 | 2.78 ± 0.2 | – | 5.22 ± 0.62 | 10.9 ± 1.1
6 | MGYLNNVTGYREDLLANRAIVKHGNFALLTPDGLVKNIIPGFENCDATILSTPKLGASFVDYLVTLHQNGGNQQGFGGEGIETFLYVISGNITAKAEGKTFALSEGGYLYCPPGSLMTFVNAQAEDSQIFLYKRRYVPVEGYAPWLVSGNASELERIHYEGMDDVILLDFLPKELGFDMNMHILSFAPGASHGYIETHVQEHGAYILSGQGVYNLDNNWIPVKKGDYIFMGAYSLQAGYGVGRGEAFSYIYSKDCNRDVEI | 4.66 ± 0.65 | 4.57 ± 0.21 | 4.56 ± 0.21 | 4.35 ± 0.076 | 4.52 ± 0.48 | – | 6.13 ± 0.5 | 10.8 ± 1.2 | 4.4 ± 0.1 | 7 ± 0.45 | 5.21 ± 0.26 | 11.1 ± 0.86
